Results on one protein are retold here after paper PMC8080960 (The journal of physical chemistry. B, 2021).

The data set concerns the molecule itself. In words: amyloid fibril formation.

B1: C-terminal domain of TDP-43 (TDP-43CTD), wild type, residues 267-414, tagless (domain or fragment)
chain: GHMNRQLERSGRFGGNPGGFGNQGGFGNSRGGGAGLGNNQGSNMGGGMNFGAFSINPAMMAAAQAALQSSWGMMGMLASQQNQSGPSGNNQNQGNMQREPNQAFGSGNNSYSGSNSGAAIGWGSASNAGSGSGFNGGFGSSMDSKSSGWGM
Take B1: the binding result is reported as “binds”.
